Experimental data taken from patent US20110166034A1.
One block for each substance: values may come before it.

Key:
[1] = molecular target: TCR of murine OT1 lymphocytes (specific for OVA257-264); assay: cell-based or functional assay
[2] = molecular target: F5 MART-1 TCR, on Jurkat^α-MART-1 cells or on transduced human PBMCs; assay: multiplexed cell sorting of a 1:1 cell mix; the number is an average over spots A and B
[3] = molecular target: F5 MART-1 TCR, on Jurkat^α-MART-1 cells or on transduced human PBMCs; assay: immuno-PCR of the DNA tag after staining of cells, gel electrophoresis
[4] = molecular target: TCR specific for tyrosinase368-376, on Jurkat^α-Tyr cells; assay: immuno-PCR of the DNA tag after staining of cells, gel electrophoresis (non-cognate control)
[5] = molecular target: F5 MART-1 TCR, on Jurkat^α-MART-1 cells or on transduced human PBMCs; assay: T cell capture density against the amount of p/MHC spotted on the covalent surface, Hill fit
[6] = molecular target: TCR specific for tyrosinase368-376, on Jurkat^α-Tyr cells; assay: multiplexed cell sorting of a 1:1 cell mix; the number is an average over spots A and B
[7] = molecular target: TCR specific for tyrosinase368-376, on Jurkat^α-Tyr cells; assay: cell capture on a NACS array, mean of three spots of about 600 µm

IFN-y clusters (ELISPOT-type sandwich assay on the array) [1]: 3 clusters
Substance: H-2Kb-OVA257-264 ssDNA-p/MHC tetramers (SAC scaffold, encoded to strands A', B' and C') (from UniProt P01901 22-305) (peptide-MHC)

average density (T cells/spot) [2]: 661 T cells/spot
PCR cycles to detection of the DNA tag [3]: < 15 cycles
PCR cycles to detection of the DNA tag [4]: 10 cycles
Substance: MART-1 26-35/HLA-A2.1 ssDNA-p/MHC tetramer on the SAC scaffold (from UniProt P61769 21-119) (peptide-MHC)

K1/2 (p/MHC monomer at half max) [5]: 5.7 ng
Substance: fluorescent MART-1 SA-PE tetramer (MART-1 26-35 loaded onto HLA-A2.1 MHC molecules) (from UniProt P61769 21-119) (peptide-MHC)

average density (T cells/spot) [6]: 661 T cells/spot
mean binding capacity (cells per spot) (T cells per spot) [7]: 1490
Substance: tyrosinase368-376/HLA-A2.1 ssDNA-p/MHC tetramer on the SAC (streptavidin-cysteine) scaffold (from UniProt P61769 21-119) (peptide-MHC)
